The values below come from patent US20200087363A1 (IMMATICS BIOTECHNOLOGIES, published 2020).

This assay has as its target T1, HLA-B*44:05 (human).
T1 construct: also called peptide-receptive MHC class I molecule
Briefly: UV peptide exchange, anti-b2m ELISA. Put shortly:
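Peptide-receptive HLA-B*44:05 monomers after UV-induced exchange were diluted 100-fold and captured on streptavidin-coated plates for 1 h at 37 °C. Bound complexes were detected with 2 µg/ml HRP-anti-β2m (1 h, 37 °C) and TMB, read at 450 nm. β2m signal reflects peptide-stabilized complex yield.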
In general terms: In an ELISA, binding on a coated surface is turned into a signal by an enzyme label.

For TEHFLKKFF, the peptide exchange yield fell in the range of 50 to 75%. Next, REVSVVDIL: more than 75%; SEYQDGKEF: 20 to 50%; SQYPHTHTF: 50 to 75%.

Molecule VEFPATRSL displayed a peptide exchange yield of 50 to 75%. Next, AECILSKRL: 50 to 75%; KEFGIGDLVW: more than 75%. Next, VEDDNYKLSL: 50 to 75%; HEIPQESL: 10 to 20%; YENILNAI: 20 to 50%. As to QEIGQKTSV, the peptide exchange yield was 50 to 75%. Next, AETIFIVRL: 20 to 50%. The same measure for DESADSEPHKY: 10 to 20%; for REDLVGPEV: 50 to 75%; for VELMFPLLL: 50 to 75%. In the case of DEYLIPQQGFF, the peptide exchange yield was in the range of 20 to 50%.

Consider IEVSSPITLQAL, for which the peptide exchange yield was 20 to 50%. Next, HEHGLFNLY: 50 to 75%. Next, KESMLKTTL: 50 to 75%. The same measure for QEDEQLLLRF: 50 to 75%. In the case of TEFELLHQV, the peptide exchange yield was in the range of 50 to 75%.

Molecule TENPKKFKI showed a peptide exchange yield of 50 to 75%. Next, HELALRQTV: more than 75%. For the molecule EEEDRDGHTW, the peptide exchange yield lay within 50 to 75%.

Molecule RLLPGKVVW showed a peptide exchange yield of 20 to 50%.

Take AEHPDFSPCSF: the peptide exchange yield lay within 50 to 75%. Next, GEQPPEGQW: 50 to 75%; RELIKAIGL: 50 to 75%; DEQLLLRF: 20 to 50%.

For the molecule CDAQIQYSY, the peptide exchange yield is 50 to 75%. QEWDPQKTEKY came in with a peptide exchange yield of 50 to 75%. Take AELDHLASL: the peptide exchange yield was 50 to 75%. Next, SEDLAVHL: more than 75%. Next, VELEVPQL: 20 to 50%.

For the molecule EESSSPVDEY, the peptide exchange yield lay in the range of 20 to 50%. The same measure for DEIDKLTGY: 20 to 50%. Next, KQWEYNEKLAF: 10 to 20%; EEFIGKIGI: 20 to 50%. Regarding SEQNIQRANLF, the peptide exchange yield fell in the range of 50 to 75%.

QEFPAHSL registered a peptide exchange yield of 50 to 75%. The molecule EDLAVHLY yielded a peptide exchange yield of 10 to 20%. Next, MEFQGPMPAGM: 50 to 75%; GEPVTQPGSLL: 50 to 75%; QEILHGAVRF: 50 to 75%. The same measure for VEQINISQDW: more than 75%; for GETCVRITY: 50 to 75%.

AEQLRGFNA: the peptide exchange yield lay within 50 to 75%. Next, VESSQAFTW: 50 to 75%; QELLDIANYL: more than 75%.

For KQTEATMTF, the peptide exchange yield lay within 20 to 50%. The same measure for QEVAGYVLI: 50 to 75%; for QELEQEVISL: 50 to 75%; for EDNLIHKF: 20 to 50%. The molecule KESQLPTVMDF came in with a peptide exchange yield of 50 to 75%. Take IEVSSPITL: the peptide exchange yield is more than 75%. The molecule DELSVGRY gave a peptide exchange yield of 20 to 50%. Next, VEEEISRHY: 20 to 50%.

As for EEFCFSVRF, the peptide exchange yield was 50 to 75%.

In turn, EEWEWIQKL yielded a peptide exchange yield of more than 75%.

DEDYTYLIL displayed a peptide exchange yield of 20 to 50%. The same measure for MELQVSSGF: 50 to 75%; for DQVTVFLHF: 10 to 20%; for MESAKETRY: 50 to 75%.

Molecule KEVASNSEL returned a peptide exchange yield of 50 to 75%. Next, AEVQIARKL: 50 to 75%; AAEPLVGQRW: 20 to 50%; YEMAIYKKY: more than 75%.
